Assay: label from the status in PepcDB records

Row | Sequence | protein production
1 | MDRSLLMAIIMLVLGNNIVILSDSLIKLLDGFEAPFQFVLYRQISATLMLLPFMLLFKRPLLPKNIRWHATRAHIFLLGTVFMVISLTTLPLATANAIFYAAPIITVVLARMFFKERVTRLSLITAVLGMVGVLVIVNPSSTNIFALAALVVATTLALNNLLVKKLPAEHSILDTLYLTNLLGIPLASAMAWFEGASFDVSTFLISVGSSLFAMIYAGTCVFAYRAAESNKVTSAEYTGLIGAVILGIVFFTETPDARFYIGSVLIIAPLTVLTLRNSNRSA | failed
2 | MEIGIIGTGNIGGTLARKLIAAGHQVRVANSKGIHGVQSFADEIGATAVDVYGAVKGADAIILSIPLPALASLPNGFFDDLPETVPLIDTSNYYPGLRDPLIPEIDDGMTESVWVSQQLSHPVIKAFNNILAWSLAELGTPKGSASRLAIAVAGDNATLKQIVMNLVDDTGFDAIDAGSLEESWRQQPSTPAYCCDYDAETMKKGLTAAVRGEAASKRDRLPLEHHHHHH | failed
3 | MSTTTATLRDAIPDTRSLVTWAAVLNAEFILILGYVVNTAQPATDPFLLVFPFIWLNIAGLVALRVRPELPSRRRTIGSVVIALGYLLVLGYVGGVYGTGGQGTGLRLVTQAPPGFSPTVVFSGATLSVVLIPWKVAGYLALSYLVFVTAVDASGGAVGGIVGLFSCVSCVLPILASILGGFVGVGATLSQAALSQSYGLSTVVFVTSVGLLYGVHRFDVTLVGRLQALVDRP | failed
4 | EEMEKGFDPKRYARELWFKLQDMMNEGLGYDAVEVLNTLDENPELAHQKFAKVVGVSNYRYYIIQGVGEIVEIKDDGILVKVRENRKVPDLFLSNHIFGNGIVNATGIAKMEDFDRIIDFNLTATELNKIVKEEVVNSFLKQLSKGAGSVGSLVRFIAVFTLLKDEEIKYPIEAIPLYLEIQGGF | not failed
5 | MTADEWPQRLIRFTDWSHAEATAVEHLLPVLIAQESELAQWSFLRKHPWWRLRYRPACPDSAKALDAALDELVDAGVLASWTRGIYEPEETAFGGPAAMKIAHALFHYDSRHLLDEAARQQTVSGPRLGRRELAVLLLSVAMRAAGLDWYEQGDVWARIAAERSGDEVRSPQRHRAAVHRLMTVDVSTTSRSVARGRLAPLAEWIATFEWFGQQLADLNRQGRLERGLRAVIAHHGIFHFNRLGLAAQDQHTLSTLAKEVVMGTSDNAASTQAEGAPGATVNGVNSDTIEAPSADRLRAQLIDHLVETGCVRTPRVEEAMRTVPRHLFVPNAPLEKAYGNAPVDTKFDGSGRSISCASQPDIVAMMLEQLDVQPGQKILELGAGTGFNAGLLGYLVGETGHVTTIDVDEDIVAGARGGLAAAGIHNVEVILGDGAVGHTPNAPYDRIEATVGAHGVPHAWLDQLAPGGRLLTPLRLRGSVSRSIAFENQDGAWRSVGSQMNTFMPLRRGIADDPRLFVPLDPDHTVTLVTNGDQKVDADALGDIFRQPRTEAWTDVTFRGPESAEYLELWLTCAMPNGLSRMPAKNEAIEKGLVTAPYPSSTAVFEDGTLTYLTRRPYAKKAPDGATLYEFGVIGHGPDAEALAGDVADQIRAWDQDFRALDVGFEIQPLDAAPLAPKPGRFAFDNPLNRIVIEWQ | failed
6 | MASSAFAFPSYIITKGGLSTDSCKSTSLSSSRSLVTDLPSPCLKPNNNSHSNRRAKVCASLAEKGEYYSNRPPTPLLDTINYPIHMKNLSVKELKQLSDELRSDVIFNVSKTGGHLGSSLGVVELTVALHYIFNTPQDKILWDVGHQSYPHKILTGRRGKMPTMRQTNGLSGFTKRGESEHDCFGTGHSSTTISAGLGMAVGRDLKGKNNNVVAVIGDGAMTAGQAYEAMNNAGYLDSDMIVILNDNKQVSLPTATLDGPSPPVGALSSALSRLQSNPALRELREVAKGMTKQIGGPMHQLAAKVDEYARGMISGTGSSLFEELGLYYIGPVDGHNIDDLVAILKEVKSTRTTGPVLIHVVTEKGRGYPYAERADDKYHGVVKFDPATGRQFKTTNKTQSYTTYFAEALVAEAEVDKDVVAIHAAMGGGTGLNLFQRRFPTRCFDVGIAEQHAVTFAAGLACEGLKPFCAIYSSFMQRAYDQVVHDVDLQKLPVRFAMDRAGLVGADGPTHCGAFDVTFMACLPNMIVMAPSDEADLFNMVATAVAIDDRPSCFRYPRGNGIGVALPPGNKGVPIEIGKGRILKEGERVALLGYGSAVQSCLGAAVMLEERGLNVTVADARFCKPLDRALIRSLAKSHEVLITVEEGSIGGFGSHVVQFLALDGLLDGKLKWRPMVLPDRYIDHGAPADQLAEAGLMPSHIAATALNLIGAPREALF | failed
7 | MKSKDSPIINEQFWDALFFNGTMPWDRSQTPNELKHYLKRIADKTHSVFIPGCGAAYEVSHFVDCGHDVIAMDYSAEAVNLAKSQLGQHQDKVMLGDVFNADFSREFDVIYERAFLAALPREIWGDYFAMIERLLPSNGLLVGYFVISDDYRSRFPPFCLRSGEIEQKLEANFHLIESTPVTDSVDVFKGKEQWMVWQKK | failed
8 | MSTQFSDKFIQNLKPEAKKYYIRESRGFAIVVHPSGIKNPKGTKTFLYIYTINGKRKELKLGNYPEVTLKDARIKHGEAYARLVNGEDPVTPPVIKAEPQDENLTFGHFTELYLQWSKDNHSPKWHNTIKCALNKDALPVWEYTLIASIKRRDAIAFLENVARRGIQVINLHKATSSVFDYALEREYIESNPMAGLKAKTIPALKPKARERFLSDSEIKHVWKAIDEGPGYDETKRALKLIMVTAQRPGEVAAMHRREIQTGVGKPRCKICKRCGWWTIPAERMKNGEEHRIYLTPTALELIGDAEGYIFPSPQDGQPINRNSLSQLVSRERNNKKPNGEMYPPYYGLPEWTPHDLRRTARTLLARVGVPEEHAEEVLSHKKEGLVDRYNRHDYMEEKKEALIKLEAELMKLSI | failed
9 | MASLGFNLGFTFSNAQIQQHRKVSGGGRARVISCNSSSSSSSQASSPQGISAVTPLEIELEFFGPKPGSDGSYPVDKAKAVSGDKLLRSIMQDNKIELYAAYGKVMNCGGGGSCGTCIVEILDGRDLLNERTDTENRYLKKKPESWRLACQTIVGNKENSGKSALDIGCRAADSTVEEVN | failed
10 | MNIILLSGKKSEAQPGDGEYPEYLCEYNGKPLIHTLIDNCAALEPRRIICTFSNDDVIGLHLRNMVQQMHPSASVLPVHNITQGAACTALLASGQIDNDDELLILSVSDFLDIELREVLRVFREANEDAGVVIFNSLHPRYSFARLDSDQRVIEAAEKNPISPHAIAGMYWFKSGSLFVSAAKEMIRKDARVNDHFYIAPALNELVLLHKKIGAYRIEPRQYRPLKTQNQLHAFEMADIR | failed
11 | MDEEIDTRKINNSFLRDHNYATEADIISTVEFNPTGELLATGDKGGRVVVFQREQESKNQPHRRGEYNVYSTLLKDWIMLIKTHRKNFRRKGKQLGFKCGSIY | failed
12 | MLYNSEVITYERAPKSEKDTKVENIKKLFILKVLIYAVSSFAISRVVMINSMVPFGIAFLACVLIYKKNDKASFLAAVGSLVGYISISGEVKDSVMYEIGVIIITLLMVVMKEKEDIKKLVTSAIFLLIEFIMFKILVEKLTVQSALIFTLIEIACVCSVYYIIRYGIICLDNIRTKHLFTNEEIISMSVLVALVISGTRNFDIYNVSIRNVLAMVFVIAISYIEGSSAGAAGGIAIGAIIGMNSSDVMIYIGVFGFLGFIAGVFKDFGKWITAGVYLIIFLIIIIYCKNHVDFSLMEAAITCIIFAGIPNKLYKKMECEFNWDRKQSDITNRYIEKMKDIFVKKLENFSEVLFTMSTTLNNLADNDKLTMKNKSCRLVENLADRVCGKCNMNSICWKREIYYTYAAFEELIQNFQEGINKIPDEIERKCVRRKELIKHTDMIINDYIMNEMWRMQVCSGREFMSAQVKNIGTSVENIIDEFSNELKFNVDVEEKIIRLLNKMGIPYKDIMCVNDKRNRNLVKLTMEACGGRQICVKHVLPVINEAVGTLMCVGDDGCSICPETNLCSVTFEETPKYYISSQIVRACKDGEEVNGDSYSFGKGKDGNYNIIISDGMGHGVQAEKESRAVIDLIEKFNESSLNRTMAINTVNSIMTLKFEEDEKFSTVDLCSVDLYSGDAEFIKVGGVTSFIKKKDKIEVINAKTLPIGVLDTVDMEVNHKKVENGDMIVMISDGVVNYDDENAGKVNWIIDFLKNSSANKPKELGEAMLKKAIELSGGKAKDDITIIISKVYSLY | failed
13 | MEMVKSRSKVAIIGAGFVGASAAFTMALRQTANELVLIDVFKEKAIGEAMDINHGLPFMGQMSLYAGDYSDVKDCDVIVVTAGANRKPGETRLDLAKKNVMIAKEVTQNIMKYYNHGVILVVSNPVDIITYMIQKWSGLPVGKVIGSGTVLDSIRFRYLLSEKLGVDVKNVHGYIIGEHGDSQLPLWSCTHIAGKNINEYIDDPKCNFTEEDKKKIAEDVKTAGATIIKNKGATYYGIAVSINTIVETLLKNQNTIRTVGTVINGMYGIEDVAISLPSIVNSEGVQEVLQFNLTPEEEEALRFSAEQVKKVLNEVKNL | not failed
